Measured values from patent US20110236874A1, “METHOD FOR FORMATION OF RENAL TUBULES” (priority 2008, published 2011).
“Also recorded” adds a separate entry of the source.

Experiments:
[1] = test system: primary human renal proximal tubule cells (HPTCs); test: α-SMA immunostaining (myofibroblasts) in HPTC cultures on ECM coatings; assay type: cell-based; settings: BMP-7 100 ng/ml constantly in the medium
Experimental: Immunostaining, histochemistry, and imaging: Immunostaining was performed as described in Sadoni et al. J Cell Biol 1999; 146(6): 1211-1226. The following primary antibodies were used: rabbit anti-ZO-1 (zonula occludens-1, Invitrogen, Carlsbad, Calif., USA) and mouse anti-α-smooth muscle actin (SMA) (Abcam, Cambridge, UK). Alexa Fluor 488-conjugated anti-rabbit (Invitrogen) and TRITC-conjugated anti-mouse (Invitrogen) secondary antibodies were applied. After immunostaining, cell nuclei were stained with DAPI and cells were mounted with vectashield (Vector Laboratories, Burlingame, Calif.) for microscopy. Histochemical detection of γGTP activity and controls were performed as described in Ryan et al. Kidney Int 1994; 45(1):48-57. Imaging was performed with a Zeiss AxioObserver Z1 microscope (Carl Zeiss, Jena, Germany) using the Zeiss AXIOVISION™ imaging software.
Disintegration of tight junctions after a certain time point is indicated. […]
Based on these observations, the question arose why the monolayer always disintegrated and could not be maintained for longer periods. […] Therefore, the presence of α-SMA-positive cells was monitored in the final experimental series. α-SMA is expressed in myofibroblasts but not in epithelial cells, and was detected in these experiments together with ZO-1 by co-immunostaining (FIG. 2).

[2] = test system: primary human renal proximal tubule cells (HPTCs); test: Quantification of α-SMA expression by immunoblotting; assay type: cell-based; settings: HPTCs on laminin + collagen IV treated with BMP-7 100 ng/ml; control uncoated TCP; FIG. 3
Experimental: Immunoblotting: For immunoblotting, cells were lyzed in 100 μl of heated NuPage LDS sample buffer (Invitrogen). Samples were collected, heated at 95° C. and centrifuged at 10,000 g for 2 minutes to pellet cell debris. Protein concentrations of the supernatants were measured with a NANODROP™ spectrophotometer (Biofrontier, Singapore). Appropriate amounts of the supernatants were loaded onto a NuPage precast gel (4-12%, Invitrogen) with the size marker PAGE Ruler Plus (Fermentas, Hanover, Md., USA). Proteins were transferred to iBlot membranes after electrophoresis. […]
After washing, the membranes were incubated with 0.2 μl/ml of both peroxidase-conjugated sheep anti-mouse antibody and donkey anti-rabbit antibody. […] The films were scanned and analyzed using Adobe Photoshop CS3.
FIG. 3. Quantification of α-SMA expression by immunoblotting. […] Proteins were extracted in each case from 3 replicas, and the extract obtained from each sample was loaded onto a separate lane of the gel. α-SMA (lower bands, 42 kD) and α-tubulin (loading control, upper bands, 50 kD) were detected by immunoblotting. […] (B) The intensities of the bands shown in (A) were determined. […]

B1: BMP-7: Bone morphogenetic protein (BMP)-7 (Sigma), added at 100 ng/ml (protein, UniProt P18075 293-431, looked up)
Bone morphogenetic protein 7: STGSKQRSQNRSKTPKNQEALRMANVAENSSSDQRQACKKHELYVSFRDLGWQDWIIAPEGYAAYYCEGECAFPLNSYMNATNHAIVQTLVHFINPETVPKPCCAPTQLNAISVLYFDDSSNVILKKYRNMVVRACGCH
- appearance of α-SMA-expressing cells and tight junction formation [1]: high numbers of α-SMA-expressing cells, associated with poor formation of tight junctions
- α-SMA expression by immunoblotting (ratio to α-tubulin) versus control [2]: significant differences compared to the control; also recorded: significantly (p 0.002) higher
